Here are results for 5 molecules from patent publication US20230028476A1 (EVOTEC INTERNATIONAL, published 2023).

What all share (assay): cell-based or functional assay
Assay [1] addresses human IFN receptor on HEK-Blue IFN-γ cells (human).
The target of assay [2] is T1, human CD40 (human, UniProt P25942 21-277).
The target of assay [3] is human IFN receptor on HEK-Blue IFN-γ cells (human). The source holds these as a separate data set.
Assay [4] concerns the target human IFN receptor on HEK-Blue IFN-λ cells (human).
The target of assay [5] is T1, human CD40. The source holds these as a separate data set.

T1 sequence (P25942 21-277): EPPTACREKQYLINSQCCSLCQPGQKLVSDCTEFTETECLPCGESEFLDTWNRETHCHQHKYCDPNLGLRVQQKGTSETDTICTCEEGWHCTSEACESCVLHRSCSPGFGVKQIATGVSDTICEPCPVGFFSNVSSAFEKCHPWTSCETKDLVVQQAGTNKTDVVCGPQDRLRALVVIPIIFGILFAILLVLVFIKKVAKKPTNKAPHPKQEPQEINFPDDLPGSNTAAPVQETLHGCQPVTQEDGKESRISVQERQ

B1: IFA43 (antibody, human IgG2, kappa)
heavy: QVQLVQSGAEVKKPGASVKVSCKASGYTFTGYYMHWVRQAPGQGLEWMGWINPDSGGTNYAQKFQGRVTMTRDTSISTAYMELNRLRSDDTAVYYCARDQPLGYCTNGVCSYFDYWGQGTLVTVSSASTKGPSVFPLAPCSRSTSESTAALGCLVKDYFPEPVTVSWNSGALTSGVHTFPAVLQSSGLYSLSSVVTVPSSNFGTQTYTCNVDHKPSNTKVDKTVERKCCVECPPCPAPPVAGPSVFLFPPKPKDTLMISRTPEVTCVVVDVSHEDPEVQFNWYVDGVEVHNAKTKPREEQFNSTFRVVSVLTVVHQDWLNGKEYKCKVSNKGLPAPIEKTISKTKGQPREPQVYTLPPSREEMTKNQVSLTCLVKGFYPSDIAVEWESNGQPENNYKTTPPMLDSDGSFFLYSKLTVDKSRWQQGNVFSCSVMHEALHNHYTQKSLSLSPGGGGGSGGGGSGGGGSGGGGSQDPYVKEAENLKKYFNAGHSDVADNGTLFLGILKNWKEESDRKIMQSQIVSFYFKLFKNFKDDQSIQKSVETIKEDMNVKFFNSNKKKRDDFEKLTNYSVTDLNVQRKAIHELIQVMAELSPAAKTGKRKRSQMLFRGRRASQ
light: DIQMTQSPSSVSASVGDRVTITCRASQGIYSWLAWYQQKPGKAPNLLIYTASTLQSGVPSRFSGSGSGTDFTLTISSLQPEDFATYYCQQANIFPLTFGGGTKVEIKRTVAAPSVFIFPPSDEQLKSGTASVVCLLNNFYPREAKVQWKVDNALQSGNSQESVTEQDSKDSTYSLSSTLTLSKADYEKHKVYACEVTHQGLSSPVTKSFNRGEC
Take B1: in assay [1], the “IFNγ activity EC50 (HEK-Blue IFNγ reporter cells)” value is under 0.01 ng/mL. Besides, the “CD40 EC50 (HEK-Blue CD40L reporter cells)” value (“CD40 EC50” below) in the assay with human CD40 [2] was determined as 50.8 ng/mL. For the same molecule, the “IFNγ EC50 (HEK-Blue IFNγ reporter cells)” value in assay [3] was under 0.001 ng/mL.

B2: IFA45 (antibody, human IgG2, kappa)
heavy: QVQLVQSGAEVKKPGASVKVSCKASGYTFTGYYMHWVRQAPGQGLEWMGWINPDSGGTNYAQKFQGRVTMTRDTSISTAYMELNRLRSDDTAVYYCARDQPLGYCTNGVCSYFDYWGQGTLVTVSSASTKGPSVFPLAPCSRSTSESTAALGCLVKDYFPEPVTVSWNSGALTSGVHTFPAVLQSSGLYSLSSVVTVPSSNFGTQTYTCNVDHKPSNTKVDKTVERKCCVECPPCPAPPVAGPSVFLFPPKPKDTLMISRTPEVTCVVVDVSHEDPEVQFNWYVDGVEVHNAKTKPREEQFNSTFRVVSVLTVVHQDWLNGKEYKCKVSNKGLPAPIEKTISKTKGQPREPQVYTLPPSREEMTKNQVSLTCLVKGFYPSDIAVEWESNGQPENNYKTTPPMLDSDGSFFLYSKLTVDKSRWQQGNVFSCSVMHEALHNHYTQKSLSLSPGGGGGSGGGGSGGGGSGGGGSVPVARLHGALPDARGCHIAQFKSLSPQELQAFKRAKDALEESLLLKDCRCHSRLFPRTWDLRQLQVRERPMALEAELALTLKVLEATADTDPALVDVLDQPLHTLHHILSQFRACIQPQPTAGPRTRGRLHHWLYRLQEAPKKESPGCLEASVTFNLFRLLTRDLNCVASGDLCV
light: B1 light
Regarding B2, the “CD40 EC50” value with human CD40 [2] stood at 25.8 ng/mL. In assay [4], the “IFNλ EC50 (HEK-Blue IFNλ reporter cells)” value was under 0.001 ng/mL.

B3: IFA42 (antibody, human IgG2, kappa)
light: DIQMTQSPSSVSASVGDRVTITCRASQGIYSWLAWYQQKPGKAPNLLIYTASTLQSGVPSRFSGSGSGTDFTLTISSLQPEDFATYYCQQANIFPLTFGGGTKVEIKRTVAAPSVFIFPPSDEQLKSGTASVVCLLNNFYPREAKVQWKVDNALQSGNSQESVTEQDSKDSTYSLSSTLTLSKADYEKHKVYACEVTHQGLSSPVTKSFNRGECGGGGSGGGGSGGGGSGGGGSQDPYVKEAENLKKYFNAGHSDVADNGTLFLGILKNWKEESDRKIMQSQIVSFYFKLFKNFKDDQSIQKSVETIKEDMNVKFFNSNKKKRDDFEKLTNYSVTDLNVQRKAIHELIQVMAELSPAAKTGKRKRSQMLFRGRRASQ
heavy: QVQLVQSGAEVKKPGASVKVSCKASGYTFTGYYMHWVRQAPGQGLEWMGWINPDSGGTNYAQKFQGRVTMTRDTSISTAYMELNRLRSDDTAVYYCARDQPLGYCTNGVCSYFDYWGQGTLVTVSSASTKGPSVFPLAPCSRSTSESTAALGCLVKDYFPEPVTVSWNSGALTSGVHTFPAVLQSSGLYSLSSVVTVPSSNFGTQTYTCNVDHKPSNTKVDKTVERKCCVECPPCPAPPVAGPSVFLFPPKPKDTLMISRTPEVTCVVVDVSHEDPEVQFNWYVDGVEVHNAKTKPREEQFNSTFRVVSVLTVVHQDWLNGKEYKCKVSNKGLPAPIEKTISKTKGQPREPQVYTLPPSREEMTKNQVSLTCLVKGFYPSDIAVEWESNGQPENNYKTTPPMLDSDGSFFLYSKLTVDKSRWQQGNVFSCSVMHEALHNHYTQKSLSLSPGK
B3: in the assay with human CD40 [2], the “CD40 EC50” value is 65.6 ng/mL. In assay [3], the “IFNγ EC50 (HEK-Blue IFNγ reporter cells)” value amounted to 15.4 ng/mL.

B4: IFA44 (antibody, human IgG2, kappa)
light: DIQMTQSPSSVSASVGDRVTITCRASQGIYSWLAWYQQKPGKAPNLLIYTASTLQSGVPSRFSGSGSGTDFTLTISSLQPEDFATYYCQQANIFPLTFGGGTKVEIKRTVAAPSVFIFPPSDEQLKSGTASVVCLLNNFYPREAKVQWKVDNALQSGNSQESVTEQDSKDSTYSLSSTLTLSKADYEKHKVYACEVTHQGLSSPVTKSFNRGECGGGGSGGGGSGGGGSGGGGSVPVARLHGALPDARGCHIAQFKSLSPQELQAFKRAKDALEESLLLKDCRCHSRLFPRTWDLRQLQVRERPMALEAELALTLKVLEATADTDPALVDVLDQPLHTLHHILSQFRACIQPQPTAGPRTRGRLHHWLYRLQEAPKKESPGCLEASVTFNLFRLLTRDLNCVASGDLCV
heavy: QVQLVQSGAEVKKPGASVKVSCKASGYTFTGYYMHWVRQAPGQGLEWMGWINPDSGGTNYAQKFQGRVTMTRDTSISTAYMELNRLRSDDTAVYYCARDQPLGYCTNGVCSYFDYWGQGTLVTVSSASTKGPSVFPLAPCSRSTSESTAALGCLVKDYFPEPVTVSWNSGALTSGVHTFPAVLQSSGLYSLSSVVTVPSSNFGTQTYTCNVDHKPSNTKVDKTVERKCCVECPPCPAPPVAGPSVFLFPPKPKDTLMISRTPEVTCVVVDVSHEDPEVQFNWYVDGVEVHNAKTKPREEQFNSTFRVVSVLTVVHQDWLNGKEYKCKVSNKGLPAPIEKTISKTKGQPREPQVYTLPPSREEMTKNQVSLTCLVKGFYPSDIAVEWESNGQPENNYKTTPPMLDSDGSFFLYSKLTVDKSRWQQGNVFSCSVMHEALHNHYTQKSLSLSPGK
On to B4, for which the “CD40 EC50” value in the assay with human CD40 [2] came to 41.4 ng/mL. In addition, the “IFNλ EC50 (HEK-Blue IFNλ reporter cells)” value in assay [4] is 0.153 ng/mL.

B5: anti-CD40 antibody 3G5 (Celldex) (antibody, human IgG2, kappa)
heavy: QVQLVESGGGVVQPGKSLRLSCAASGFTFSSNGIHWVRQAPGKGLEWVAVIWSDGSNKFYADSVKGRFTISRDNSKNTLYLQMNSLRAEDTAVYYCARASGSGSYYNFFDYWGQGTLVTVSSASTKGPSVFPLAPCSRSTSESTAALGCLVKDYFPEPVTVSWNSGALTSGVHTFPAVLQSSGLYSLSSVVTVPSSNFGTQTYTCNVDHKPSNTKVDKTVERKCCVECPPCPAPPVAGPSVFLFPPKPKDTLMISRTPEVTCVVVDVSHEDPEVQFNWYVDGVEVHNAKTKPREEQFNSTFRVVSVLTVVHQDWLNGKEYKCKVSNKGLPAPIEKTISKTKGQPREPQVYTLPPSREEMTKNQVSLTCLVKGFYPSDIAVEWESNGQPENNYKTTPPMLDSDGSFFLYSKLTVDKSRWQQGNVFSCSVMHEALHNHYTQKSLSLSPG
light: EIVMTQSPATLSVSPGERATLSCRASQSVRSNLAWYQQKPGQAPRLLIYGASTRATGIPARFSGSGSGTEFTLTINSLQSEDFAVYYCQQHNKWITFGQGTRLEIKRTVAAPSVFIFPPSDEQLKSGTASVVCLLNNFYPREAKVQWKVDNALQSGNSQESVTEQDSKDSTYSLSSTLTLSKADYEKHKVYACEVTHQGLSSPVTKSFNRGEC
For the molecule B5, the “mean EC50, CD40 activity (HEK-Blue CD40L reporter cells)” value in the assay with human CD40 [5] amounted to 9.3 ng/mL.
